# Measurements as given in patent US20230212549A1 (3B PHARMACEUTICALS, published 2023).
# Numbered stars: 1 amine (or outer) side, 2 acyl side, 3 side chain; on linkers, the order of the positions; unused ones are H or OH. Bridge positions count the residues as written; N and C are the ends. Square brackets hold non-standard residues; d marks the D form. Primed or numbered codes have the meaning given here. * marks the point of attachment. tMeBn(DOTA-PP)″ = trimethylbenzylidene (tMeBn) bridge between the two Cys thiols, whose remaining connection point carries a DOTA chelator via a PP linker; Ttds″ = 1,13-diamino-4,7,10-trioxatridecan-succinamic acid spacer, O=C(CCC(=O)[*:2])NCCCOCCOCCOCCCN[*:1]; Ttds(4) = spacer between chelator and peptide, O=C(CCC(=O)[*:2])NCCCOCCOCCOCCCN[*:1]; DOTA = O=C(O)CN1CCN(CC(=O)O)CCN(CC(=O)*)CCN(CC(=O)O)CC1; mXylylene = c1cc(C[*:1])cc(C[*:2])c1; Pentanesulfonyl = CCCCCS(=O)(=O)*; 3Amb = NCc1cccc(C(=O)O)c1; 4Amb = NCc1ccc(C(=O)O)cc1; Nle = CCCC[C@H](N)C(=O)O; Hexanoyl = CCCCCC(=O)*; NH(CH2)5NH2 = NCCCCCN*; Omp = not defined here; GABA = NCCCC(=O)O; Sar = CNCC(=O)O
# B1: Ac-[Cys(3MeBn)-Pro-Pro-Thr-Glu-Phe-Cys]-Asp-His-Phe-Arg-Asp-NH2 (peptide)
# peptide: Ac-CPPTEFCDHFRD-NH2
# modifications: linker 1-7 via mXylylene
# SMILES: CC(=O)N[C@H]1CSCc2cccc(c2)CSC[C@@H](C(=O)N[C@@H](CC(=O)O)C(=O)N[C@@H](Cc2c[nH]cn2)C(=O)N[C@@H](Cc2ccccc2)C(=O)N[C@@H](CCCNC(=N)N)C(=O)N[C@@H](CC(=O)O)C(N)=O)NC(=O)[C@H](Cc2ccccc2)NC(=O)[C@H](CCC(=O)O)NC(=O)[C@H]([C@@H](C)O)NC(=O)[C@@H]2CCCN2C(=O)[C@@H]2CCCN2C1=O
# notes: also called 3BP-3202
# B2: Hex-[Cys(3MeBn)-Pro-Pro-Thr-Glu-Phe-Cys]-Asp-Mamb-Arg-NH2 (peptide)
# peptide: Hexanoyl-CPPTEFCD[3Amb]R-NH2
# modifications: linker 1-7 via mXylylene
# SMILES: CCCCCC(=O)N[C@H]1CSCc2cccc(c2)CSC[C@@H](C(=O)N[C@@H](CC(=O)O)C(=O)NCc2cccc(C(=O)N[C@@H](CCCNC(=N)N)C(N)=O)c2)NC(=O)[C@H](Cc2ccccc2)NC(=O)[C@H](CCC(=O)O)NC(=O)[C@H]([C@@H](C)O)NC(=O)[C@@H]2CCCN2C(=O)[C@@H]2CCCN2C1=O
# notes: also called 3BP-3324
# B3: Hex-[Cys(tMeBn(DOTA-AET))-Pro-Pro-Thr-Gln-Phe-AET] (peptide)
# peptide: CPPTQFX
# modifications: not fully specified; N-term Hex; X7 = AET; Cys1/AET7 thioether-cyclised via tMeBn(DOTA-AET)
# notes: also called 3BP-3654
# B4: Hex-[Cys(3MeBn)-Pro-Pro-Thr-Glu-Phe-Cys]-Asp-NH2 (peptide)
# peptide: Hexanoyl-CPPTEFCD-NH2
# modifications: linker 1-7 via mXylylene
# SMILES: CCCCCC(=O)N[C@H]1CSCc2cccc(c2)CSC[C@@H](C(=O)N[C@@H](CC(=O)O)C(N)=O)NC(=O)[C@H](Cc2ccccc2)NC(=O)[C@H](CCC(=O)O)NC(=O)[C@H]([C@@H](C)O)NC(=O)[C@@H]2CCCN2C(=O)[C@@H]2CCCN2C1=O
# notes: also called 3BP-3288
# B5: Hex-[Cys(tMeBn(DOTA-AET))-Pro-Pro-Thr-Gln-Phe-Cys]-asp-NH2 (peptide)
# peptide: CPPTQFCD
# modifications: N-term Hex; Cys1/Cys7 thioether-cyclised via tMeBn(DOTA-AET); D-Asp at 8; C-term amide
# notes: also called 3BP-3681
# B6: Ac-Met-[Cys(3MeBn)-Pro-Pro-Thr-Glu-Phe-Cys]-Asp-His-Phe-Arg-Asp-NH2 (peptide)
# peptide: Ac-MCPPTEFCDHFRD-NH2
# modifications: linker 2-8 via mXylylene
# SMILES: CSCC[C@H](NC(C)=O)C(=O)N[C@H]1CSCc2cccc(c2)CSC[C@@H](C(=O)N[C@@H](CC(=O)O)C(=O)N[C@@H](Cc2c[nH]cn2)C(=O)N[C@@H](Cc2ccccc2)C(=O)N[C@@H](CCCNC(=N)N)C(=O)N[C@@H](CC(=O)O)C(N)=O)NC(=O)[C@H](Cc2ccccc2)NC(=O)[C@H](CCC(=O)O)NC(=O)[C@H]([C@@H](C)O)NC(=O)[C@@H]2CCCN2C(=O)[C@@H]2CCCN2C1=O
# notes: also called 3BP-2975
# B7: Hex-[Cys(3MeBn)-Pro-Pro-Thr-Glu-Phe-Cys]-Asp-His-Phe-Arg-Asp-NH2 (peptide)
# peptide: Hexanoyl-CPPTEFCDHFRD-NH2
# modifications: linker 1-7 via mXylylene
# SMILES: CCCCCC(=O)N[C@H]1CSCc2cccc(c2)CSC[C@@H](C(=O)N[C@@H](CC(=O)O)C(=O)N[C@@H](Cc2c[nH]cn2)C(=O)N[C@@H](Cc2ccccc2)C(=O)N[C@@H](CCCNC(=N)N)C(=O)N[C@@H](CC(=O)O)C(N)=O)NC(=O)[C@H](Cc2ccccc2)NC(=O)[C@H](CCC(=O)O)NC(=O)[C@H]([C@@H](C)O)NC(=O)[C@@H]2CCCN2C(=O)[C@@H]2CCCN2C1=O
# B8: Pentyl-SO2-[Cys(3MeBn)-Pro-Pro-Thr-Gln-Phe-Cys]-Asp-NH2 (peptide)
# peptide: Pentanesulfonyl-CPPTQFCD-NH2
# modifications: linker 1-7 via mXylylene
# SMILES: CCCCCS(=O)(=O)N[C@H]1CSCc2cccc(c2)CSC[C@@H](C(=O)N[C@@H](CC(=O)O)C(N)=O)NC(=O)[C@H](Cc2ccccc2)NC(=O)[C@H](CCC(N)=O)NC(=O)[C@H]([C@@H](C)O)NC(=O)[C@@H]2CCCN2C(=O)[C@@H]2CCCN2C1=O
# notes: also called 3BP-3514
# B9: Hex-[Cys(3MeBn)-Pro-Pro-Thr-Glu-Phe-Cys]-Asp-Gab-Arg-NH2 (peptide)
# peptide: Hexanoyl-CPPTEFCD[GABA]R-NH2
# modifications: linker 1-7 via mXylylene
# SMILES: CCCCCC(=O)N[C@H]1CSCc2cccc(c2)CSC[C@@H](C(=O)N[C@@H](CC(=O)O)C(=O)NCCCC(=O)N[C@@H](CCCNC(=N)N)C(N)=O)NC(=O)[C@H](Cc2ccccc2)NC(=O)[C@H](CCC(=O)O)NC(=O)[C@H]([C@@H](C)O)NC(=O)[C@@H]2CCCN2C(=O)[C@@H]2CCCN2C1=O
# notes: also called 3BP-3300
# B10: Hex-[Cys(3MeBn)-Pro-Pro-Thr-Glu-Phe-Cys]-Asp-Ttds-Lys(DOTA)-NH2 (peptide)
# peptide: Hexanoyl-CPPTEFCD[Ttds″]K(DOTA)-NH2
# modifications: linker 1-7 via mXylylene
# SMILES: CCCCCC(=O)N[C@H]1CSCc2cccc(c2)CSC[C@@H](C(=O)N[C@@H](CC(=O)O)C(=O)NCCCOCCOCCOCCCNC(=O)CCC(=O)N[C@@H](CCCCNC(=O)CN2CCN(CC(=O)O)CCN(CC(=O)O)CCN(CC(=O)O)CC2)C(N)=O)NC(=O)[C@H](Cc2ccccc2)NC(=O)[C@H](CCC(=O)O)NC(=O)[C@H]([C@@H](C)O)NC(=O)[C@@H]2CCCN2C(=O)[C@@H]2CCCN2C1=O
# notes: also called 3BP-3396
# B11: Hex-[Cys(3MeBn)-Pro-Pro-Thr-Gln-Phe-Cys]-Asp-Ttds-Lys(DOTA)-NH2 (peptide)
# peptide: Hexanoyl-CPPTQFCD[Ttds″]K(DOTA)-NH2
# modifications: linker 1-7 via mXylylene
# SMILES: CCCCCC(=O)N[C@H]1CSCc2cccc(c2)CSC[C@@H](C(=O)N[C@@H](CC(=O)O)C(=O)NCCCOCCOCCOCCCNC(=O)CCC(=O)N[C@@H](CCCCNC(=O)CN2CCN(CC(=O)O)CCN(CC(=O)O)CCN(CC(=O)O)CC2)C(N)=O)NC(=O)[C@H](Cc2ccccc2)NC(=O)[C@H](CCC(N)=O)NC(=O)[C@H]([C@@H](C)O)NC(=O)[C@@H]2CCCN2C(=O)[C@@H]2CCCN2C1=O
# notes: also called 3BP-3395
# B12: DOTA-Ttds-Nle-[Cys(3MeBn)-Pro-Pro-Thr-Gln-Phe-Cys]-Asp-NH2 (peptide)
# peptide: {DOTA}-[Ttds(4)][Nle]CPPTQFCD-NH2
# modifications: linker 3-9 via mXylylene
# SMILES: CCCC[C@H](NC(=O)CCC(=O)NCCCOCCOCCOCCCNC(=O)CN1CCN(CC(=O)O)CCN(CC(=O)O)CCN(CC(=O)O)CC1)C(=O)N[C@H]1CSCc2cccc(c2)CSC[C@@H](C(=O)N[C@@H](CC(=O)O)C(N)=O)NC(=O)[C@H](Cc2ccccc2)NC(=O)[C@H](CCC(N)=O)NC(=O)[C@H]([C@@H](C)O)NC(=O)[C@@H]2CCCN2C(=O)[C@@H]2CCCN2C1=O
# notes: also called 3BP-3401
# B13: Hex-[Cys(3MeBn)-Pro-Pro-Thr-Glu-Phe-Cys]-Asp-Pamb-Arg-NH2 (peptide)
# peptide: Hexanoyl-CPPTEFCD[4Amb]R-NH2
# modifications: linker 1-7 via mXylylene
# SMILES: CCCCCC(=O)N[C@H]1CSCc2cccc(c2)CSC[C@@H](C(=O)N[C@@H](CC(=O)O)C(=O)NCc2ccc(C(=O)N[C@@H](CCCNC(=N)N)C(N)=O)cc2)NC(=O)[C@H](Cc2ccccc2)NC(=O)[C@H](CCC(=O)O)NC(=O)[C@H]([C@@H](C)O)NC(=O)[C@@H]2CCCN2C(=O)[C@@H]2CCCN2C1=O
# notes: also called 3BP-3301
# B14: Hex-[Cys(3MeBn)-Pro-Pro-Thr-Glu-Phe-Cys]-Asp-Omp-Arg-NH2 (peptide)
# peptide: Hexanoyl-CPPTEFCD[Omp]R-NH2
# modifications: linker 1-7 via mXylylene; reading uncertain; also: printed as Hex-[Cys(3MeBn)-Pro-Pro-Thr-Glu-Phe-Cys]-Asp-Omp-Arg-NH2
# notes: also called 3BP-3302
# B15: Hex-[Cys(3MeBn)-Pro-Pro-Thr-Glu-Phe-Cys]-Asp-Pamb-Arg-NH2 (peptide)
# peptide: Hexanoyl-CPPTEFCD[4Amb]R-NH2
# modifications: linker 1-7 via mXylylene
# SMILES: CCCCCC(=O)N[C@H]1CSCc2cccc(c2)CSC[C@@H](C(=O)N[C@@H](CC(=O)O)C(=O)NCc2ccc(C(=O)N[C@@H](CCCNC(=N)N)C(N)=O)cc2)NC(=O)[C@H](Cc2ccccc2)NC(=O)[C@H](CCC(=O)O)NC(=O)[C@H]([C@@H](C)O)NC(=O)[C@@H]2CCCN2C(=O)[C@@H]2CCCN2C1=O
# notes: also called 3BP-3301
# Target: T1, Recombinant human FAP (R&D systems, #3715-SE) (human, UniProt Q12884 26-760)
# T1 construct: bought; in SPR captured on immobilized anti-FAP antibody MAB3715; also called rhFAP; human recombinant FAP
# Assay: SPR (Biacore T200), FAP captured on anti-FAP antibody, single cycle kinetics
row,Binder,pKD Category [pKD]
1,B1,> 8
2,"Hexanoyl-C[Sar]PTQFC-OH (linker 1-7 via tMeBn(DOTA-AET), also called 3BP-3678) [Hex-[Cys(tMeBn(DOTA-AET))-Nmg-Pro-Thr-Gln-Phe-Cys]-OH]",> 8
3,B2,> 8
4,B3,> 8
5,"Hexanoyl-CPPTQFCD-{NH(CH2)5NH2-DOTA′} (linker 1-7 via mXylylene, also called 3BP-3403) [Hex-[Cys(3MeBn)-Pro-Pro-Thr-Gln-Phe-Cys]-Asp-Ape-NH-DOTA′]",> 8
6,"Hexanoyl-CPPTQFCG-OH (linker 1-7 via tMeBn(DOTA-AET), also called 3BP-3656) [Hex-[Cys(tMeBn(DOTA-AET))-Pro-Pro-Thr-Gln-Phe-Cys]-Gly-OH]",> 8
7,B4,> 8
8,"Hexanoyl-CPPTQFCS-OH (linker 1-7 via tMeBn(DOTA-AET), also called 3BP-3658) [Hex-[Cys(tMeBn(DOTA-AET))-Pro-Pro-Thr-Gln-Phe-Cys]-Ser-OH]",> 8
9,"Pentanesulfonyl-CPPTQFCD-NH2 (linker 1-7 via tMeBn(DOTA-PP)″, also called 3BP-3692) [Pentyl-SO2-[Cys(tMeBn(DOTA-PP))-Pro-Pro-Thr-Gln-Phe-Cys]-Asp-NH2]",> 8
10,B5,> 8
11,"Hexanoyl-CPPTQFCD-NH2 (linker 1-7 via tMeBn(InDOTA-PP); also: In complex (InDOTA), also called 3BP-3590) [Hex-[Cys(tMeBn(InDOTA-PP))-Pro-Pro-Thr-Gln-Phe-Cys]-Asp-NH2]",> 8
12,B6,> 8
13,"Hexanoyl-CPPTQFCD-OH (linker 1-7 via tMeBn(DOTA-AET), also called 3BP-3665) [Hex-[Cys(tMeBn(DOTA-AET))-Pro-Pro-Thr-Gln-Phe-Cys]-Asp-OH]",> 8
14,B7,> 8
15,"Hexanoyl-CPPTQFCD-NH2 (linker 1-7 via tMeBn(GaDOTA-PP); also: Ga complex (GaDOTA), also called 3BP-3592) [Hex-[Cys(tMeBn(GaDOTA-PP))-Pro-Pro-Thr-Gln-Phe-Cys]-Asp-NH2]",> 8
16,"Hexanoyl-CPPTQFCD-NH2 (linker 1-7 via tMeBn(LuDOTA-PP); also: Lu complex (LuDOTA), also called 3BP-3591) [Hex-[Cys(tMeBn(LuDOTA-PP))-Pro-Pro-Thr-Gln-Phe-Cys]-Asp-NH2]",> 8
17,B8,> 8
18,B9,> 8
19,B10,> 8
20,B11,> 8
21,B12,> 8
22,"Hexanoyl-CPPTEFC-NH2 (linker 1-7 via tMeBn(DOTA-AET), also called 3BP-3653) [Hex-[Cys(tMeBn(DOTA-AET))-Pro-Pro-Thr-Glu-Phe-Cys]-NH2]",> 8
23,B13,> 8

# Target: Recombinant human FAP (R&D systems, #3715-SE) (human, UniProt Q12884 26-760)
# Assay: cell-based or functional assay
row,Binder,pIC50 Category (Activity) [pIC50]
1,B14,> 8
2,B15,> 8

# Target: T2, fibroblast activation protein (FAP) on FAP-expressing human WI-38 fibroblasts (human, UniProt Q12884 1-760)
# T2 construct: also called human FAP
# Assay: competitive FACS, WI-38 cells, vs Cy5 tracer m3; A = pIC50 >8.0
row,Binder,pIC50 Category (FACS) [pIC50]
1,B14,> 8
2,B15,> 8
